Patent US20180305431A1 (Novo Nordisk, published 2018)

Tests used:
[1] = biological target: insulin receptor on primary rat adipocytes (rat) (UniProt P15127); assay: cell-based or functional assay
[2] = biological target: membrane-associated human IR-A (plasma membranes of BHK cells stably transfected with the human IR-A insert) (human) (UniProt P06213); assay: SPA competition vs [125I-A14Y]-human insulin, membrane hIR-A, 0.1% HSA
[3] = biological target: membrane-associated human IR-B (plasma membranes of BHK cells stably transfected with the human IR-B insert) (human) (UniProt P06213); assay: SPA competition vs [125I-A14Y]-human insulin, membrane hIR-B, 0.1% HSA
Sequence of membrane-associated human IR-B (plasma membranes of BHK cells stably transfected with the human IR-B insert) (human) (P06213 28-1382): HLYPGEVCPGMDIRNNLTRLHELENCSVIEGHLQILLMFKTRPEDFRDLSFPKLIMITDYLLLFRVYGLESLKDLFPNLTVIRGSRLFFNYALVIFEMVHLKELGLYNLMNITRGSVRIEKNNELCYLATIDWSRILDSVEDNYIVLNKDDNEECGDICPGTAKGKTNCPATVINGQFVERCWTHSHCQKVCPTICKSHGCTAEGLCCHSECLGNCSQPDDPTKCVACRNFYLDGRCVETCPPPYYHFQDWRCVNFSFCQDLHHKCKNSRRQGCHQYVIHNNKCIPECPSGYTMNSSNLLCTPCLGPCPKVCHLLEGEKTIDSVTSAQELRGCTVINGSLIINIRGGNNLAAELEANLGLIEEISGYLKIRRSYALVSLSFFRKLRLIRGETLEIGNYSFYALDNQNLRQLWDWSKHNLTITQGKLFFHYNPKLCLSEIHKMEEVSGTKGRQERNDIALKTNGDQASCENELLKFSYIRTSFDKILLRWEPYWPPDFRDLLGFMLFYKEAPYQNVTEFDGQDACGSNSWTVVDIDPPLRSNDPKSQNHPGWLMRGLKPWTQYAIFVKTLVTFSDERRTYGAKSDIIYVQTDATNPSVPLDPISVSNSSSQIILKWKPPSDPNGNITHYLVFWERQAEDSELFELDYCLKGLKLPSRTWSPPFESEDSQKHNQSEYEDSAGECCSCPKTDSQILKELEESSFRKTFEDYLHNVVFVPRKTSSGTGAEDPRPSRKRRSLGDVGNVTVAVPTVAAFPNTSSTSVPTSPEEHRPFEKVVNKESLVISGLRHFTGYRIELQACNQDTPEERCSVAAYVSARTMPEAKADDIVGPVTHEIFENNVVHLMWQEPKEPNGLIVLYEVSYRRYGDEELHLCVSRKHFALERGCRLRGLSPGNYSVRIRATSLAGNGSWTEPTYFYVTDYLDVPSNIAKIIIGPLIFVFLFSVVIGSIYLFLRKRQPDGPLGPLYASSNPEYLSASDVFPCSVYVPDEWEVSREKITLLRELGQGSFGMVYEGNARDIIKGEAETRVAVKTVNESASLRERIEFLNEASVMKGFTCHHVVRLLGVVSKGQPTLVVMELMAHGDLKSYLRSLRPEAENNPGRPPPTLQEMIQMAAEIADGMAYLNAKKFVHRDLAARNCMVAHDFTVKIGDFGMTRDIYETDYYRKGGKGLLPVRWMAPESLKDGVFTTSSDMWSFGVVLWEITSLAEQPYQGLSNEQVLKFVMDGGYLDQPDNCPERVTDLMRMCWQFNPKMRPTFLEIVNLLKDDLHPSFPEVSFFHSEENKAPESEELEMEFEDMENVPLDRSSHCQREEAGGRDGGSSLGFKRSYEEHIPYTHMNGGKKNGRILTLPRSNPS

Sequence of insulin receptor on primary rat adipocytes (rat) (P15127 27-1383): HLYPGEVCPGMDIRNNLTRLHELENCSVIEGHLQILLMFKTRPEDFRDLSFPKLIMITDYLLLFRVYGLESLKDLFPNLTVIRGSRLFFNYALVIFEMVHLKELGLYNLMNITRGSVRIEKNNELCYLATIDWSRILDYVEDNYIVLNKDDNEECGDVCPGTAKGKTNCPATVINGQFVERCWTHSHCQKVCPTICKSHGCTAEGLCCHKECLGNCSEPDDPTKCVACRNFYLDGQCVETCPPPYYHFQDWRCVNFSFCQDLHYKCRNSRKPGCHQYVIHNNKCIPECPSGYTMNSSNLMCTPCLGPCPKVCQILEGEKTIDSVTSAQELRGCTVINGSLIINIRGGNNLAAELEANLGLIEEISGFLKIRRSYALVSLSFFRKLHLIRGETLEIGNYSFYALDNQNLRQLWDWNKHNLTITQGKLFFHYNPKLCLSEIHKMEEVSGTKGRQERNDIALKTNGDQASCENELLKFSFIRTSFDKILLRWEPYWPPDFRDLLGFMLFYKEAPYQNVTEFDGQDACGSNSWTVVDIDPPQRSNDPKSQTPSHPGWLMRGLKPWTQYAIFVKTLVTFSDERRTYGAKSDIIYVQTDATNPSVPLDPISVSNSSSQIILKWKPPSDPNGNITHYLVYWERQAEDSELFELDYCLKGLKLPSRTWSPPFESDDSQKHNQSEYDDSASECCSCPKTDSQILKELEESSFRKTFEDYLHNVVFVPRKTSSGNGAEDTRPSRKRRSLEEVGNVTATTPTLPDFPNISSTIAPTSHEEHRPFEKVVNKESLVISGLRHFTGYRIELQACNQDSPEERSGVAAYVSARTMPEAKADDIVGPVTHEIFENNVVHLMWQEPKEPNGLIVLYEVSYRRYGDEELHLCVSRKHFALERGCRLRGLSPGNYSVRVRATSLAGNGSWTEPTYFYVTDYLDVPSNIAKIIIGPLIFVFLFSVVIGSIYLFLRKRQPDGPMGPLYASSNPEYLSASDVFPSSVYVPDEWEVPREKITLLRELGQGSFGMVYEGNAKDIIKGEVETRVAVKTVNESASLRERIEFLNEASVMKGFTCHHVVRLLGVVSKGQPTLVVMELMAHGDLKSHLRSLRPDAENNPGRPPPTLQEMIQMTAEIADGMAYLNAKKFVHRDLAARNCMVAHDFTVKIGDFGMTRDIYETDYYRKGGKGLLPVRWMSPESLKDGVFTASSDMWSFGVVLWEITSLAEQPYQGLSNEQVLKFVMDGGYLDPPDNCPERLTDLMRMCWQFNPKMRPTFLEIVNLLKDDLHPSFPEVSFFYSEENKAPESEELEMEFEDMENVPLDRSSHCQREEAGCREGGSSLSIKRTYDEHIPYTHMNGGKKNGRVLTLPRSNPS

Row | Substance | Lipogenesis 1% HSA (% rel to HI) [1] | relative binding affinity (% rel to HI) [2] | relative binding affinity (% rel to HI) [3]
1 | A22K(N(eps)tetradecanedioyl-4xgGlu), B3E, B27E, B28E, B29R, desB30 human insulin (ligand) | 27.3 % rel to HI | 74.9 % rel to HI | 157 % rel to HI
2 | A22K(N(eps)hexadecanedioyl-4xgGlu), B3E, B28D, B29R, desB30 human insulin (ligand) | 3.8 % rel to HI | 20.9 % rel to HI | 47.8 % rel to HI
3 | A22K(N(eps)tetradecanedioyl-4xgGlu), B3E, B28E, B29P, B30R human insulin (ligand) | 19.5 % rel to HI | 44.6 % rel to HI | 94.5 % rel to HI
4 | A22K(N(eps)hexadecanedioyl-4xgGlu), B3E, B26E, B29R, desB30 human insulin (ligand) |  | 29.1 % rel to HI | 46.8 % rel to HI
5 | A22K(N(eps)Hexadecanedioyl-gGlu-2xOEG), B3E, B27E, B29R, desB30 human insulin (ligand) | 3.2 % rel to HI | 71.1 % rel to HI | 72.1 % rel to HI
6 | A22K(N(eps)hexadecanedioyl-4xgGlu), B3E, B27E, B28E, B29R, desB30 human insulin (ligand) | 4.4 % rel to HI | 29.1 % rel to HI | 35.7 % rel to HI
7 | A22K(N(eps)hexadecanedioyl-gGlu-2xOEG), B3E, B27E, B28E, B29R, desB30 human insulin (ligand) | 4.4 % rel to HI | 30.9 % rel to HI | 38.2 % rel to HI
8 | A22K(N(eps)hexadecanedioyl-gGlu-2xOEG), B3E, B27P, B28E, B29R, desB30 human insulin (ligand) | 3.3 % rel to HI | 31.2 % rel to HI | 29.4 % rel to HI
9 | A22K(N(eps)tetradecanedioyl-4xgGlu), B3E, B26E, B28E, B29P, B30R human insulin (ligand) | 17.9 % rel to HI | 46.4 % rel to HI | 76.2 % rel to HI
10 | A22K(N(eps)tetradecanedioyl-4xgGlu), B3E, B27E, B28R, desB29, desB30 human insulin (ligand) | 29.9 % rel to HI | 40.6 % rel to HI | 81.7 % rel to HI

The next lines start with the values.

Row | Lipogenesis 1% HSA (% rel to HI) [1] | relative binding affinity (% rel to HI) [2] | relative binding affinity (% rel to HI) [3] | Substance
11 | 31.3 % rel to HI | 66.9 % rel to HI | 105 % rel to HI | A22K(N(eps)tetradecanedioyl-4xgGlu), B3E, B26E, B29R, desB30 human insulin (ligand)
12 | 78.8 % rel to HI | 63.2 % rel to HI | 90.7 % rel to HI | A22K(N(eps)tetradecanedioyl-4xgGlu), B3E, B26E, B27P, B28R, desB29, desB30 human insulin (ligand)
13 | 20.3 % rel to HI | 75.6 % rel to HI | 75.9 % rel to HI | A22K(N(eps)tetradecanedioyl-gGlu-2xOEG), B3E, B27P, B28E, B29R, desB30 human insulin (ligand)
14 | 11.1 % rel to HI | 61.5 % rel to HI | 119 % rel to HI | A22K(N(eps)tetradecanedioyl-4xgGlu), B3E, B27E, B29R, desB30 human insulin (ligand)
15 | 1.1 % rel to HI | 25.7 % rel to HI | 55.3 % rel to HI | A22K(N(eps)hexadecanedioyl-4xgGlu), B3E, B27E, B29R, desB30 human insulin (ligand)
16 | 26.4 % rel to HI | 64.9 % rel to HI | 93.7 % rel to HI | A22K(N(eps)tetradecanedioyl-4xgGlu), B3E, B28D, B29R, desB30 human insulin (ligand)
